IntAct's records for PubMed 37582800

B1: HTH-type transcriptional regulator MalT (Escherichia coli (strain K12)), P06993 (parent)
chain: MLIPSKLSRPVRLDHTVVRERLLAKLSGANNFRLALITSPAGYGKTTLISQWAAGKNDIGWYSLDEGDNQQERFASYLIAAVQQATNGHCAICETMAQKRQYASLTSLFAQLFIELAEWHSPLYLVIDDYHLITNPVIHESMRFFIRHQPENLTLVVLSRNLPQLGIANLRVRDQLLEIGSQQLAFTHQEAKQFFDCRLSSPIEAAESSRICDDVSGWATALQLIALSARQNTHSAHKSARRLAGINASHLSDYLVDEVLDNVDLATRHFLLKSAILRSMNDALITRVTGEENGQMRLEEIERQGLFLQRMDDTGEWFCYHPLFGNFLRQRCQWELAAELPEIHRAAAESWMAQGFPSEAIHHALAAGDALMLRDILLNHAWSLFNHSELSLLEESLKALPWDSLLENPQLVLLQAWLMQSQHRYGEVNTLLARAEHEIKDIREDTMHAEFNALRAQVAINDGNPDEAERLAKLALEELPPGWFYSRIVATSVLGEVLHCKGELTRSLALMQQTEQMARQHDVWHYALWSLIQQSEILFAQGFLQTAWETQEKAFQLINEQHLEQLPMHEFLVRIRAQLLWAWARLDEAEASARSGIEVLSSYQPQQQLQCLAMLIQCSLARGDLDNARSQLNRLENLLGNGKYHSDWISNANKVRVIYWQMTGDKAAAANWLRHTAKPEFANNHFLQGQWRNIARAQILLGEFEPAEIVLEELNENARSLRLMSDLNRNLLLLNQLYWQAGRKSDAQRVLLDALKLANRTGFISHFVIEGEAMAQQLRQLIQLNTLPELEQHRAQRILREINQHHRHKFAHFDENFVERLLNHPEVPELIRTSPLTQREWQVLGLIYSGYSNEQIAGELEVAATTIKTHIRNLYQKLGVAHRQDAVQHAQQLLKMMGYGV
partner: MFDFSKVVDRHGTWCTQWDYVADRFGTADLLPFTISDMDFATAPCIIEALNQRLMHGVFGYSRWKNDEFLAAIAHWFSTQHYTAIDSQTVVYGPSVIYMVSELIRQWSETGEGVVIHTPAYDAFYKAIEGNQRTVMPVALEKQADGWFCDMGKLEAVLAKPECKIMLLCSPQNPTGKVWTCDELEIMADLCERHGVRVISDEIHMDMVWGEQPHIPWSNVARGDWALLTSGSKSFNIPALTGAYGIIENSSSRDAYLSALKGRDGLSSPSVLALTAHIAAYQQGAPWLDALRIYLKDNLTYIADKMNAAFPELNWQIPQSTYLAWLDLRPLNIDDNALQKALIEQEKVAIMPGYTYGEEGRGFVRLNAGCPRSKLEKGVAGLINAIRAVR
B2: Protein MalY (Escherichia coli (strain K12)), P23256 (parent)
chain: B1 partner
partner: B1 chain

Variants of: B1
Conditions: with maly_ecoli malY

Variant | effect of a mutation on the interaction
E140A | with no effect
R143A;R173A | disrupting interaction strength
R143A | disrupting interaction strength

Now from value to variant:

effect of a mutation on the interaction | Variant
with no effect | N169A
disrupting interaction strength | R173A

Variants of: B2
Conditions: with malt_ecoli malT

Variant | effect of a mutation on the interaction
D182A;E185A;S218A | with no effect
